In patent US20140213531A1 (POLYPHOR, published 2014):
Bridges are numbered along the chain shown (N, C = ends). [ ]: non-standard residue; d: D form. AlloThr = allo threonine

T1: Elastase from human neutrophils (human, UniProt P08246 30-247, limits assumed)
T1 sequence (looked up): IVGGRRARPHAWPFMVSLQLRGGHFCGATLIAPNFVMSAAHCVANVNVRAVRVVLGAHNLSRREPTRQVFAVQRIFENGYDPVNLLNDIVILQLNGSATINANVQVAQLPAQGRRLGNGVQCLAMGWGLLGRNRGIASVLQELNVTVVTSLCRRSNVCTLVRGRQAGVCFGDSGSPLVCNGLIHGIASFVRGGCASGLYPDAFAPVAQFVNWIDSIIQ

T2: Chymase, from human skin (human, UniProt P23946 22-247)
T2 sequence (looked up): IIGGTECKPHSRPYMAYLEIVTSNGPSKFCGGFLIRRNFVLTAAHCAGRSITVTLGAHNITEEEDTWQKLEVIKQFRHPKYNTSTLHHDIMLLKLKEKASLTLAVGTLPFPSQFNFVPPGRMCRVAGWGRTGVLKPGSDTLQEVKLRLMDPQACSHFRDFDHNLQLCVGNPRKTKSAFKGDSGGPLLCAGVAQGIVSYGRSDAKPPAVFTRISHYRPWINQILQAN

T3: CathepsinG, from human neutrophils (human, UniProt P08311 21-244)
T3 sequence (looked up): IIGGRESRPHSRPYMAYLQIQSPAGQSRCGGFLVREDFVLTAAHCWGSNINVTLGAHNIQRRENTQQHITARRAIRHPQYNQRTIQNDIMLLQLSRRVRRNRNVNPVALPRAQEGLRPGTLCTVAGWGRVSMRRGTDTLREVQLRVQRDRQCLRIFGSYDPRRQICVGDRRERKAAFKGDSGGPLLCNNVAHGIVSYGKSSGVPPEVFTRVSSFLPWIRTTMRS

B1: Example 31 (peptide)
peptide: XCTKSDPPICN
HELM: PEPTIDE1{[Nc1ccc(C[C@H](N[*:1])C(=O)[*:2])cc1].C.T.K.S.D.P.P.I.C.N.[dP].P}$PEPTIDE1,PEPTIDE1,2:R3-10:R3|PEPTIDE1,PEPTIDE1,1:R1-13:R2$$$V2.0
SMILES: CC[C@H](C)[C@@H]1NC(=O)[C@@H]2CCCN2C(=O)[C@@H]2CCCN2C(=O)[C@H](CC(=O)O)NC(=O)[C@H](CO)NC(=O)[C@H](CCCCN)NC(=O)[C@H]([C@@H](C)O)NC(=O)[C@@H]2CSSC[C@H](NC1=O)C(=O)N[C@@H](CC(N)=O)C(=O)N1CCC[C@@H]1C(=O)N1CCC[C@H]1C(=O)N[C@@H](Cc1ccc(N)cc1)C(=O)N2
B2: Example 26 (peptide)
peptide: YCTKSDPPICY
HELM: PEPTIDE1{Y.C.T.K.S.D.P.P.I.C.Y.[dP].P}$PEPTIDE1,PEPTIDE1,2:R3-10:R3|PEPTIDE1,PEPTIDE1,1:R1-13:R2$$$V2.0
SMILES: CC[C@H](C)[C@@H]1NC(=O)[C@@H]2CCCN2C(=O)[C@@H]2CCCN2C(=O)[C@H](CC(=O)O)NC(=O)[C@H](CO)NC(=O)[C@H](CCCCN)NC(=O)[C@H]([C@@H](C)O)NC(=O)[C@@H]2CSSC[C@H](NC1=O)C(=O)N[C@@H](Cc1ccc(O)cc1)C(=O)N1CCC[C@@H]1C(=O)N1CCC[C@H]1C(=O)N[C@@H](Cc1ccc(O)cc1)C(=O)N2
B3: Example 24 (peptide)
peptide: cyclo(FCTK[AlloThr]DPPICS[dP]P)
modifications: disulfide 2-10
B4: Example 52 (peptide)
peptide: cyclo(ICTKSDPAICR[dP]P)
modifications: disulfide 2-10
B5: Example 2 (peptide)
peptide: FCTKSDPPICD
HELM: PEPTIDE1{F.C.T.K.S.D.P.P.I.C.D.[dP].P}$PEPTIDE1,PEPTIDE1,2:R3-10:R3|PEPTIDE1,PEPTIDE1,1:R1-13:R2$$$V2.0
SMILES: CC[C@H](C)[C@@H]1NC(=O)[C@@H]2CCCN2C(=O)[C@@H]2CCCN2C(=O)[C@H](CC(=O)O)NC(=O)[C@H](CO)NC(=O)[C@H](CCCCN)NC(=O)[C@H]([C@@H](C)O)NC(=O)[C@@H]2CSSC[C@H](NC1=O)C(=O)N[C@@H](CC(=O)O)C(=O)N1CCC[C@@H]1C(=O)N1CCC[C@H]1C(=O)N[C@@H](Cc1ccccc1)C(=O)N2
B6: Example 14 (peptide)
peptide: cyclo(ICTKSDPAICR[dP]P)
modifications: disulfide 2-10
B7: Example 3 (peptide)
peptide: FCTKSDPPICN
HELM: PEPTIDE1{F.C.T.K.S.D.P.P.I.C.N.[dP].P}$PEPTIDE1,PEPTIDE1,2:R3-10:R3|PEPTIDE1,PEPTIDE1,1:R1-13:R2$$$V2.0
SMILES: CC[C@H](C)[C@@H]1NC(=O)[C@@H]2CCCN2C(=O)[C@@H]2CCCN2C(=O)[C@H](CC(=O)O)NC(=O)[C@H](CO)NC(=O)[C@H](CCCCN)NC(=O)[C@H]([C@@H](C)O)NC(=O)[C@@H]2CSSC[C@H](NC1=O)C(=O)N[C@@H](CC(N)=O)C(=O)N1CCC[C@@H]1C(=O)N1CCC[C@H]1C(=O)N[C@@H](Cc1ccccc1)C(=O)N2
B8: Example 28 (peptide)
peptide: XCTKSDPPICT
HELM: PEPTIDE1{[O=C([C@H](CCc1ccccc1)N[*:1])[*:2]].C.T.K.S.D.P.P.I.C.T.[dP].P}$PEPTIDE1,PEPTIDE1,2:R3-10:R3|PEPTIDE1,PEPTIDE1,1:R1-13:R2$$$V2.0
SMILES: CC[C@H](C)[C@@H]1NC(=O)[C@@H]2CCCN2C(=O)[C@@H]2CCCN2C(=O)[C@H](CC(=O)O)NC(=O)[C@H](CO)NC(=O)[C@H](CCCCN)NC(=O)[C@H]([C@@H](C)O)NC(=O)[C@@H]2CSSC[C@H](NC1=O)C(=O)N[C@@H]([C@@H](C)O)C(=O)N1CCC[C@@H]1C(=O)N1CCC[C@H]1C(=O)N[C@@H](CCc1ccccc1)C(=O)N2
B9: Example 1 (peptide)
peptide: FCTKSEPPICT
HELM: PEPTIDE1{F.C.T.K.S.E.P.P.I.C.T.[dP].P}$PEPTIDE1,PEPTIDE1,2:R3-10:R3|PEPTIDE1,PEPTIDE1,1:R1-13:R2$$$V2.0
SMILES: CC[C@H](C)[C@@H]1NC(=O)[C@@H]2CCCN2C(=O)[C@@H]2CCCN2C(=O)[C@H](CCC(=O)O)NC(=O)[C@H](CO)NC(=O)[C@H](CCCCN)NC(=O)[C@H]([C@@H](C)O)NC(=O)[C@@H]2CSSC[C@H](NC1=O)C(=O)N[C@@H]([C@@H](C)O)C(=O)N1CCC[C@@H]1C(=O)N1CCC[C@H]1C(=O)N[C@@H](Cc1ccccc1)C(=O)N2
B10: Example 84 (peptide)
peptide: XCTASXPPQCY
HELM: PEPTIDE1{[Nle].C.T.A.S.[O=C([C@@H](N[*:1])C1CCCCC1)[*:2]].P.P.Q.C.Y.[dP].P}$PEPTIDE1,PEPTIDE1,2:R3-10:R3|PEPTIDE1,PEPTIDE1,1:R1-13:R2$$$V2.0
SMILES: CCCC[C@@H]1NC(=O)[C@@H]2CCCN2C(=O)[C@H]2CCCN2C(=O)[C@H](Cc2ccc(O)cc2)NC(=O)[C@@H]2CSSC[C@H](NC1=O)C(=O)N[C@@H]([C@@H](C)O)C(=O)N[C@@H](C)C(=O)N[C@@H](CO)C(=O)N[C@@H](C1CCCCC1)C(=O)N1CCC[C@H]1C(=O)N1CCC[C@H]1C(=O)N[C@@H](CCC(N)=O)C(=O)N2

The binders below were run against Chymotrypsin, from human pancreas (human, UniProt P17538 19-263) (assay: cell-based or functional assay).
Chymotrypsin, from human pancreas, sequence (P17538 19-263): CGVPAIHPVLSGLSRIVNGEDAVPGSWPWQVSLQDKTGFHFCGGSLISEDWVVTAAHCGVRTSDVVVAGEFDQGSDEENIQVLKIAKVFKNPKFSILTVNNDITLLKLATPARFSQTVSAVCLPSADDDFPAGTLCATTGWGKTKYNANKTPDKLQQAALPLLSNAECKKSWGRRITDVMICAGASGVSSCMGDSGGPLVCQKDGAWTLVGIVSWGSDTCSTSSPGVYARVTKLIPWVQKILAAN

% inhibition at 100 µM | Binder
15% | B1
2.2% | B2
1% | B3
0% | B4
2.9% | B5
0% | B6
0% | B7
32% | B8
7.8% | B9

These binders were tested against Thrombin, from Human Plasma, high activity (human, UniProt P00734 328-622) (assay: cell-based or functional assay).

% inhibition at 100 µM | Binder
10% | B1
3% | B2
3.5% | B3
8.7% | B4
9.2% | B5
8.7% | B6
0% | B7
12% | B8
20.6% | B10
1.1% | B9

What follows are binders tested against Trypsin, Iodination grade, from human pancreas (human, UniProt P07477 24-247) (assay: cell-based or functional assay).

% inhibition at 100 µM | Binder
98% | B1
84% | B2
97% | B3
92% | B5
92% | B7
95% | B8
10.8% | B10
92.6% | B9

These binders were tested against T1, Elastase from human neutrophils (assay: cell-based or functional assay).

IC50 | Binder
> 100000 nmol | B1
> 100000 nmol | B2
> 100000 nmol | B3
> 100000 nmol | B4
> 100000 nmol | B5
> 100000 nmol | B6
> 100000 nmol | B7
> 100000 nmol | B8
18 nmol | B10
> 100000 nmol | B9

These binders were tested against T2, Chymase, from human skin (assay: cell-based or functional assay).

% inhibition at 100 µM | Binder
12% | B1
0% | B2
1.2% | B3
42.3% | B4
0% | B5
42.3% | B6
1% | B7
0% | B8
0% | B10
0% | B9

These binders were tested against Urokinase from human urine (human, UniProt P00749 21-431, limits assumed) (assay: cell-based or functional assay).

% inhibition at 100 µM | Binder
15% | B1
3.1% | B2
5.1% | B3
5.4% | B4
0.9% | B5
5.4% | B6
4% | B7
1% | B8
10.4% | B10
5.7% | B9

The binders below were run against Tryptase, from human lung (human, UniProt Q15661 31-275, limits assumed) (assay: cell-based or functional assay).
Tryptase, from human lung, sequence (Q15661 31-275 limits assumed): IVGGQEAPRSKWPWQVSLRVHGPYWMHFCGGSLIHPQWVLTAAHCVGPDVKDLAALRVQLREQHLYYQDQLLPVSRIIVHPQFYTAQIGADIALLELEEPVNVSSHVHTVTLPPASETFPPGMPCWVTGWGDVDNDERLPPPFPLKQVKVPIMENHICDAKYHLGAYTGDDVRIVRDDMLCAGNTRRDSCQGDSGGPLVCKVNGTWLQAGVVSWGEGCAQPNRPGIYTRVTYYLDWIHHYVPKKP

% inhibition at 100 µM | Binder
76% | B1
66.4% | B2
0% | B3
84.2% | B4
39.6% | B5
84.2% | B6
68% | B7
0% | B8
4.2% | B10
0% | B9

What follows are binders tested against Coagulation Factor Xa, from human plasma (human, UniProt P00742 41-488, limits assumed) (assay: cell-based or functional assay).
Coagulation Factor Xa, from human plasma, sequence (P00742 41-488 limits assumed): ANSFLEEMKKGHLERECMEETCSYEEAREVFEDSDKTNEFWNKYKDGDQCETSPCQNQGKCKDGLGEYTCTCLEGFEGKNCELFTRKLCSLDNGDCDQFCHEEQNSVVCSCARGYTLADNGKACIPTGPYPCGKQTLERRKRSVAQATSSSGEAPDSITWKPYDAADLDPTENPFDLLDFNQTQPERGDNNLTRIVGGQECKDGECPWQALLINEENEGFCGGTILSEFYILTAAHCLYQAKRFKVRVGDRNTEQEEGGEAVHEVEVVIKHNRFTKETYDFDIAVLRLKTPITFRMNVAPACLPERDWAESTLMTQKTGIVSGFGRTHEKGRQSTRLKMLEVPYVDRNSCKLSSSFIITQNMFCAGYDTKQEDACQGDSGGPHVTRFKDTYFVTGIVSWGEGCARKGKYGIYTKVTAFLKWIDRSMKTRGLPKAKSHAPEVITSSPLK

% inhibition at 100 µM | Binder
8% | B1
6% | B2
30% | B3
6% | B4
5.3% | B5
6% | B6
4% | B7
6% | B8
13.3% | B10
5.7% | B9

Each binder was assayed against T3, CathepsinG, from human neutrophils (assay: cell-based or functional assay).

IC50 | Binder
34 nmol | B1
49 nmol | B2
71 nmol | B3
52 nmol | B4
84 nmol | B5
52 nmol | B6
51 nmol | B7
39 nmol | B8
20200 nmol | B10
86 nmol | B9
